Reference: publication PMC10791855
Blank lines part the entries; values can stand above or below the substance they belong to.

Tests used:
Experiment in all cases: SEC; gel filtration on HiPrep 16/60 Sephacryl S-200 HR in 20 mM Tris-HCl, 1.5 M NaCl, 50 mM imidazole, pH 7.4; molecular mass estimated against standard proteins
[1] = molecular target: Universal stress protein USP5 from Haloferax mediterranei (Haloferax mediterranei)
[2] = molecular target: Universal stress protein USP21 from Haloferax mediterranei (Haloferax mediterranei)
[3] = molecular target: Universal stress protein USP28 from Haloferax mediterranei (Haloferax mediterranei)

stoichiometry N [1]: 2
Substance: Universal stress protein USP5 from Haloferax mediterranei (natural protein)

stoichiometry N [2]: 2
Substance: Universal stress protein USP21 from Haloferax mediterranei (natural protein)

stoichiometry N [3]: 2
Substance: Universal stress protein USP28 from Haloferax mediterranei (natural protein)
